Results from patent US11292821B2, “Peptides and combination of peptides for use in immunotherapy against lung cancer, including NSCLC, SCLC and other cancers” (Immatics Biotechnologies GmbH, priority 2017, dated 2022).

Legend:
HLA-B*07 = HLA-B*07 (Homo sapiens, UniProt P01889); assay: MHC binding assay (UV-ligand exchange, β2m ELISA)
Source text: Candidate peptides for T cell based therapies according to the present invention were further tested for their MHC binding capacity (affinity). The individual peptide-MHC complexes were produced by UV-ligand exchange, where a UV-sensitive peptide is cleaved upon UV-irradiation, and exchanged with the peptide of interest as analyzed. Only peptide candidates that can effectively bind and stabilize the peptide-receptive MHC molecules prevent dissociation of the MHC complexes. To determine the yield of the exchange reaction, an ELISA was performed based on the detection of the light chain (β2m) of stabilized MHC complexes. The assay was performed as generally described in Rodenko et al. (Rodenko et al., 2006).
96 well MAXISorp plates (NUNC) were coated over night with 2 ug/ml streptavidin in PBS at room temperature, washed 4× and blocked for 1 h at 37° C. in 2% BSA containing blocking buffer. […] Peptide-MHC monomers of the UV-exchange reaction were diluted 100-fold in blocking buffer. Samples were incubated for 1 h at 37° C., washed four times, incubated with 2 ug/ml HRP conjugated anti-β2m for 1h at 37° C., washed again and detected with TMB solution that is stopped with […]. Absorption was measured at 450 nm. Candidate peptides that show a high exchange yield (preferably higher than 50%, most preferred higher than 75%) are generally preferred for a generation and production of antibodies or fragments thereof, and/or T cell receptors or fragments thereof, as they show sufficient avidity to the MHC molecules and prevent dissociation of the MHC complexes.

CD8+ T cells = assay: In vitro T-cell priming assay with aAPCs (in vitro immunogenicity for MHC class I presented peptides); assay type: cell-based, human; details: in vitro immunogenicity, HLA B*07

Row | Peptide exchange (peptide exchange yield, MHC class I binding score) (HLA-B*07) | Substance | Wells positive [%] (CD8+ T cells)
1 | “++++” (>75% = ++++) | 221 (VPDVAQFVL; listed as Homo sapiens) [compound 221] | “++” (20%-49% = ++)
2 | “++++” (>75% = ++++) | 224 (GPQPWHAAL; listed as Homo sapiens) [compound 224] | “++” (20%-49% = ++)
3 | “++++” (>75% = ++++) | 225 (LPFDGPGGIL; listed as Homo sapiens) [compound 225] | “++++” (>=70% = ++++)
4 | “++++” (>75% = ++++) | 228 (YPRGNHWAVGHL; listed as Homo sapiens) [compound 228] | “++” (20%-49% = ++)
5 | “++++” (>75% = ++++) | 231 (RPRALRDLQL; listed as Homo sapiens) [compound 231] | “++” (20%-49% = ++)
6 | “++++” (>75% = ++++) | 232 (RPRALRDLQLL; listed as Homo sapiens) [compound 232] | “+++” (50%-69% = +++)
7 | “+++” (>50 = +++) | 237 (RPAATAVISL; listed as Homo sapiens) [compound 237] | “+” (<20% = +)
8 | “++++” (>75% = ++++) | 256 (SPRVPSIEL; listed as Homo sapiens) [compound 256] | 
9 | “++++” (>75% = ++++) | 257 (LPRIPFADV; listed as Homo sapiens) [compound 257] | 
10 | “++++” (>75% = ++++) | 258 (LPRGPLASL; listed as Homo sapiens) [compound 258] | 
11 | “++++” (>75% = ++++) | 259 (RPPAAGLRGISL; listed as Homo sapiens) [compound 259] | 
12 | “+++” (>50 = +++) | 260 (YPQHPGLNA; listed as Homo sapiens) [compound 260] | 
13 | “+++” (>50 = +++) | 261 (APSARVGVC; listed as Homo sapiens) [compound 261] | 
14 | “++” (>20% = ++) | 267 (HPELVNHIVF; listed as Homo sapiens) [compound 267] | 
15 | “++++” (>75% = ++++) | 268 (YPLFRGINL; listed as Homo sapiens) [compound 268] | 
16 | “+++” (>50 = +++) | 276 (LPRAGGAFL; listed as Homo sapiens) [compound 276] | 
17 | “++” (>20% = ++) | 278 (HPMIDINGIIVF; listed as Homo sapiens) [compound 278] | 
18 | “+++” (>50 = +++) | 279 (SPARASPAL; listed as Homo sapiens) [compound 279] | 
19 | “+++” (>50 = +++) | 280 (VPISEEGTPVL; listed as Homo sapiens) [compound 280] | 
20 | “+++” (>50 = +++) | 282 (MPQIETRVIL; listed as Homo sapiens) [compound 282] | 
21 | “++” (>20% = ++) | 284 (FPVTSIFHTF; listed as Homo sapiens) [compound 284] | 
22 | “++++” (>75% = ++++) | 286 (VPTLRSEL; listed as Homo sapiens) [compound 286] | 
23 | “++++” (>75% = ++++) | 289 (VPENHSVAL; listed as Homo sapiens) [compound 289] | 
24 | “++++” (>75% = ++++) | 290 (APYRPPDISL; listed as Homo sapiens) [compound 290] | 
25 | “++++” (>75% = ++++) | 291 (SPQRLRGLL; listed as Homo sapiens) [compound 291] | 
26 | “++++” (>75% = ++++) | 295 (KPEGTRIAV; listed as Homo sapiens) [compound 295] | 
27 | “+++” (>50 = +++) | 459 (RPMQQARAQL; listed as Homo sapiens) [compound 459] | 
28 | “++++” (>75% = ++++) | 466 (APYKSVTSL; listed as Homo sapiens) [compound 466] | 
29 | “++++” (>75% = ++++) | 468 (SPMYGQAGL; listed as Homo sapiens) [compound 468] | 
30 | “++++” (>75% = ++++) | 471 (KPRPDVTNEL; listed as Homo sapiens) [compound 471] | 

Continued, substance first:

Row | Substance | Peptide exchange (peptide exchange yield, MHC class I binding score) (HLA-B*07) | Wells positive [%] (CD8+ T cells)
31 | 220 (SPSVSQLSVL; listed as Homo sapiens) [compound 220] | “++++” (>75% = ++++) | “++++” (>=70% = ++++)
32 | 222 (NPFYPEVEL; listed as Homo sapiens) [compound 222] | “+++” (>50 = +++) | “+” (<20% = +)
33 | 223 (YPKDIYSSF; listed as Homo sapiens) [compound 223] | “++++” (>75% = ++++) | “++” (20%-49% = ++)
34 | 226 (SPRMSGLLSQT; listed as Homo sapiens) [compound 226] | “++++” (>75% = ++++) | “+++” (50%-69% = +++)
35 | 233 (KPYQGNPTF; listed as Homo sapiens) [compound 233] | “++++” (>75% = ++++) | “+” (<20% = +)
36 | 253 (RVIDAVRFTL; listed as Homo sapiens) [compound 253] | “+++” (>50 = +++) | 
37 | 254 (NPFPHLITL; listed as Homo sapiens) [compound 254] | “++++” (>75% = ++++) | 
38 | 255 (MPLLENLYL; listed as Homo sapiens) [compound 255] | “++++” (>75% = ++++) | 
39 | 262 (SAYPQRLEI; listed as Homo sapiens) [compound 262] | “+” (>10% = +) | 
40 | 263 (HPAPYGDLL; listed as Homo sapiens) [compound 263] | “++++” (>75% = ++++) | 
41 | 265 (SPRQPPRLV; listed as Homo sapiens) [compound 265] | “++++” (>75% = ++++) | 
42 | 269 (APRAPRLML; listed as Homo sapiens) [compound 269] | “++++” (>75% = ++++) | 
43 | 270 (APGPRFLVT; listed as Homo sapiens) [compound 270] | “++++” (>75% = ++++) | 
44 | 271 (MPLPWSLALP; listed as Homo sapiens) [compound 271] | “+++” (>50 = +++) | 
45 | 272 (MPLPWSLALPL; listed as Homo sapiens) [compound 272] | “++++” (>75% = ++++) | 
46 | 273 (MPLLWLRGF; listed as Homo sapiens) [compound 273] | “++” (>20% = ++) | 
47 | 275 (APHPPLSVV; listed as Homo sapiens) [compound 275] | “+++” (>50 = +++) | 
48 | 281 (RPRAPVTPA; listed as Homo sapiens) [compound 281] | “++++” (>75% = ++++) | 
49 | 283 (RPHSLSSEL; listed as Homo sapiens) [compound 283] | “++++” (>75% = ++++) | 
50 | 287 (APREEQQRSL; listed as Homo sapiens) [compound 287] | “+++” (>50 = +++) | 
51 | 288 (FPQKFIDLL; listed as Homo sapiens) [compound 288] | “++” (>20% = ++) | 
52 | 464 (YPRPGTPAA; listed as Homo sapiens) [compound 464] | “++++” (>75% = ++++) | 
53 | 465 (VPRPIFSQL; listed as Homo sapiens) [compound 465] | “++++” (>75% = ++++) | 
54 | 467 (KPFSSFTSM; listed as Homo sapiens) [compound 467] | “++++” (>75% = ++++) | 
55 | 469 (YPENGVVQM; listed as Homo sapiens) [compound 469] | “++” (>20% = ++) | 
56 | 470 (SPNSYFRVL; listed as Homo sapiens) [compound 470] | “++++” (>75% = ++++) | 
57 | 472 (NPRATDAQL; listed as Homo sapiens) [compound 472] | “++++” (>75% = ++++) | 
58 | 475 (RPHKPGLYL; listed as Homo sapiens) [compound 475] | “++++” (>75% = ++++) | 
